# Measured values reported in patent CN117820472A (VAZYME MEDICAL CO LTD; HUNAN NOVAZYME MEDICAL TECH CO LTD, dated 2024).
# Ends that are not written are not given here.
# T1: Tau 181多肽 (also: biotin coupling for SA coating, place not given here)
# T1 peptide: CPPAPKTPP
# Target: T1, Tau 181多肽
# Experiment: indirect ELISA, cell supernatants on SA+biotin peptide plates (m1 as a member of the 80 antibodies)
binder,measurement,value
"Anti-p-Tau 181-rRmab-1 (antibody, V domains shown, Recombinant rabbit monoclonal antibody from single B cell cloning, expressed in HEK293 cells and purified on protein A. Only the variable domains are printed) VH: CQSVEESGGRLVTPGTPLTLTCTVSGFSLSIYAMSWVRQAPGKGLEYIGYIVSSGSTYYASWAKGRVTISKTSSTTVDLKITSPATEDTATYFCARGSITGFTRLELWGQGTLVTVSS VL: DIVMTQTPASVEAAVGGTVTIKCQASESISSGLAWYQQKPGQPPKLLIYGASTLASGVPSRFKGSRSGTEYTLTISDLECADAATYYCQSYYYSSGSSLLYGFGGGTEVVVK",binding result,no binding
